Measured values as given in publication PMC9645710, “Cryo-EM structures of peripherin-2 and ROM1 suggest multiple roles in photoreceptor membrane morphogenesis” (Science Advances, 2022).
Values belong to the binder of their own block, whether it stands above or below them.

Legend:
[1] = molecular target: T1, PRPH2^C150S-ROM1 heterodimer (human, UniProt P23942;Q03395, C150S, N-acetylglucosamine on Asn229 (density in the map); possible glycosylation at Asn53); assay: cryo-EM structure; PRPH2^C150S-ROM1 purified in 25 mM tris-HCl, 150 mM NaCl, pH 7.5, 0.025% DDM/CHS, incubated with an excess of Nanobody19, ~9 mg/ml; single-particle map at 3.7 A; conditions: both partners purified
T1 construct: peripherin-2 (PRPH2), human, full length; as m1; rod outer segment membrane protein 1 (ROM1), human, full length; as m2; Formed and purified before Nanobody19 was added; also called PRPH2^C150S-ROM1 complex; PRPH2-ROM1 heterodimer; source: HEK293T, transiently co-transfected, solubilized in DDM/CHS, purified (Strep-Tactin, SEC); not shown: Strep3, N-terminal, kept; copies: 1 + 1
T1 sequence (Q03395 whole entry, stated change not applied, one chain of several): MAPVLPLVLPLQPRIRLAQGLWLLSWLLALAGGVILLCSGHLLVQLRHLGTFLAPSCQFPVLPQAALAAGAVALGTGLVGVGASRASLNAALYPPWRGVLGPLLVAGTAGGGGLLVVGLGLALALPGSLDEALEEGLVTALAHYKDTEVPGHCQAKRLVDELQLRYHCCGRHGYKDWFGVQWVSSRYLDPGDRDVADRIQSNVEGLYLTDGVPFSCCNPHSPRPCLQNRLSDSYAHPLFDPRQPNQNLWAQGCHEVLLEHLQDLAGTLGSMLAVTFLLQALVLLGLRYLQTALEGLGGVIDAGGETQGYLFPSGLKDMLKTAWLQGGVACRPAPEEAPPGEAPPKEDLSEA

[2] = molecular target: T2, ROM1 (human rod outer segment membrane protein 1, N-terminal Strep3-GFP tag) (human, UniProt Q03395); assay: as above; conditions: both partners purified
T2 construct: rod outer segment membrane protein 1 (ROM1), human, full length; codon-optimized cDNA from GeneArt in a pUPE vector; Residues 323 to 351 were not modelled in the structure; also called retinal outer segment protein 1; source: HEK293T, transiently transfected together with PRPH2^C150S, solubilized in DDM/CHS, purified (Strep-Tactin, SEC); not shown: Strep3, N-terminal, kept

[3] = molecular target: T3, ROM1 (human rod outer segment membrane protein 1, N-terminal Strep3-GFP tag) (human, UniProt Q03395 1-351); assay: as above; conditions: both partners purified
T3 construct: rod outer segment membrane protein 1 (ROM1), human, full length; codon-optimized cDNA from GeneArt in a pUPE vector; Residues 323 to 351 were not modelled in the structure; also called retinal outer segment protein 1; source: HEK293T, transiently transfected together with PRPH2^C150S, solubilized in DDM/CHS, purified (Strep-Tactin, SEC); not shown: Strep3, N-terminal, kept

[4] = molecular target: the molecule itself; assay: SEC; PRPH2 and ROM1 (wild type or cysteine mutants) expressed in HEK293T, solubilized in DDM/CHS; Superdex 200 Increase 10/300 GL, 25 mM tris-HCl, 150 mM NaCl, pH 7.5, 0.025% DDM/CHS; no reducing agent
[5] = molecular target: T4, ROM1 (human rod outer segment membrane protein 1, wild type, N-terminal Strep3 tag) (human, UniProt Q03395 1-351); assay: cryo-EM structure; wild-type PRPH2-ROM1, one SEC fraction of heterogeneous complexes in 0.025% DDM/CHS, ~3.6 mg/ml; maps of tetramer, hexamer and octamer at ~7-8 A with the heterodimer docked in; the sizes count chains of PRPH2 and ROM1 together; conditions: both partners purified
T4 construct: rod outer segment membrane protein 1 (ROM1), human, full length; codon-optimized cDNA from GeneArt in a pUPE vector; source: HEK293T, transiently transfected together with PRPH2, solubilized in DDM/CHS, purified (Strep-Tactin, SEC); not shown: Strep3, N-terminal, kept
T4 sequence (Q03395 whole entry): as the sequence (Q03395 whole entry, stated change not applied, one chain of several) above

stoichiometry N [1]: 1
binding result [2]: binds
B1: Nanobody19 (VHH)
VHH: QVQLQESGGGLVQAGGSLRLSCAASTRTTSRYTVGWFCQAPGKEREFVAAVHWSGGSTWYADSVKGRFTISRDNAKNTVYLQMNSLKQEDTAVYYCAAAEPRRYSYYMRPDEYNYWGQGTQVTVSS
notes: modelled in the deposited structure PDB 7ZW1; also called Nb19; source: E. coli BL21(DE3), purified (Ni-NTA, SEC)

binding result [3]: binds
B2: PRPH2^C150S (human peripherin-2 with mutation C150S, N-terminal 6x-His tag) (natural protein, UniProt P23942 1-346, looked up)
chain: MALLKVKFDQKKRVKLAQGLWLMNWFSVLAGIIIFSLGLFLKIELRKRSDVMNNSESHFVPNSLIGMGVLSCVFNSLAGKICYDALDPAKYARWKPWLKPYLAICVLFNIILFLVALCCFLLRGSLENTLGQGLKNGMKYYRDTDTPGRSFMKKTIDMLQIEFKCCGNNGFRDWFEIQWISNRYLDFSSKEVKDRIKSNVDGRYLVDGVPFSCCNPSSPRPCIQYQITNNSAHYSYDHQTEELNLWVRGCRAALLSYYSSLMNSMGVVTLLIWLFEVTITIGLRYLQTSLDGVSNPEESESESQGWLLERSVPETWKAFLESVKKLGKGNQVEAEGADAGQAPEAG
modifications: N-acetylglucosamine on Asn229 (density in the map); possible glycosylation at Asn53
notes: peripherin-2 (PRPH2), human, full length; codon-optimized cDNA from GeneArt in a pUPE vector; Residues 322 to 346 were not modelled in the structure; source: HEK293T, transiently transfected together with ROM1, solubilized in DDM/CHS, purified (Strep-Tactin through ROM1, SEC)

binding result [5]: binds
B3: PRPH2 (human peripherin-2, wild type, N-terminal 6x-His tag) (natural protein, UniProt P23942 1-346, looked up)
chain: MALLKVKFDQKKRVKLAQGLWLMNWFSVLAGIIIFSLGLFLKIELRKRSDVMNNSESHFVPNSLIGMGVLSCVFNSLAGKICYDALDPAKYARWKPWLKPYLAICVLFNIILFLVALCCFLLRGSLENTLGQGLKNGMKYYRDTDTPGRCFMKKTIDMLQIEFKCCGNNGFRDWFEIQWISNRYLDFSSKEVKDRIKSNVDGRYLVDGVPFSCCNPSSPRPCIQYQITNNSAHYSYDHQTEELNLWVRGCRAALLSYYSSLMNSMGVVTLLIWLFEVTITIGLRYLQTSLDGVSNPEESESESQGWLLERSVPETWKAFLESVKKLGKGNQVEAEGADAGQAPEAG
notes: peripherin-2 (PRPH2), human, full length; codon-optimized cDNA from GeneArt in a pUPE vector; The tag is told for the oligomer preparation; source: HEK293T, transiently transfected together with ROM1, solubilized in DDM/CHS, purified (Strep-Tactin through ROM1, SEC)
stoichiometry N [4]: 2
